According to US20240116985A1 (published 2024):
One block for each binder: values may come before it. Starred links: 1 amine or outer side, 2 acyl side, 3 side chain; linkers in the order of their positions; H or OH if unused. Positions of bridges follow the written chain, without caps; N, C: chain ends. Non-standard residues stand in square brackets, D forms with d. Primed or numbered codes have the meaning given here. PyrS2″ = (S)-3-amino-1-((pent-4-en-1-yloxy)carbonyl)pyrrolidine-3-carboxylic acid (stapling residue), C=CCCCOC(=O)N1CC[C@@](N[*:1])(C(=O)[*:2])C1; SeN″ = (S)-5-(((allyloxy)carbonyl)(methyl)amino)-2-amino-2-methylpentanoic acid (stapling residue), C=CCOC(=O)N(C)CCC[C@](C)(N[*:1])C(=O)[*:2]; B5(4) = 2,2-bis(4-pentenyl)glycine = 2-amino-2-(pent-4-en-1-yl)hept-6-enoic acid (stitching residue), C=CCCCC(CCCC=C)(N[*:1])C(=O)[*:2]; B5(5) = 2,2-bis(4-pentenyl)glycine, 2-amino-2-(pent-4-en-1-yl)hept-6-enoic acid (stitching residue), C=CCCCC(CCCC=C)(N[*:1])C(=O)[*:2]; PyrS2 = (S)-3-amino-1-((pent-4-en-1-yloxy)carbonyl)pyrrolidine-3-carboxylic acid, C=CCCCOC(=O)N1CC[C@@](N[*:1])(C(=O)[*:2])C1; Phe(3-COOH) = N[C@@H](Cc1cccc(C(=O)O)c1)C(=O)O; 2F3MeF = Cc1cccc(C[C@H](N[*:1])C(=O)[*:2])c1F; Phe(2-CF3) = N[C@@H](Cc1ccccc1C(F)(F)F)C(=O)O; Phe(4-F) = N[C@@H](Cc1ccc(F)cc1)C(=O)O; Bta = N[C@@H](Cc1csc2ccccc12)C(=O)O; αAllylPro = C=CC[C@@]1(C(=O)O)CCCN1; tBuAla = CC(C)(C)C[C@H](N)C(=O)O; S8 = C=CCCCCCC[C@](C)(N)C(=O)O

Columns and labels:
[1] = biological target: T1, full-length beta-Catenin (Uniprot ID P35222) (Homo sapiens (Human), UniProt P35222 2-781); assay: fluorescence polarization competition; 5FAM-TCF4(10-53) probe with full-length beta-catenin
T1 construct: also called B-Catenin; bCat
T1 sequence: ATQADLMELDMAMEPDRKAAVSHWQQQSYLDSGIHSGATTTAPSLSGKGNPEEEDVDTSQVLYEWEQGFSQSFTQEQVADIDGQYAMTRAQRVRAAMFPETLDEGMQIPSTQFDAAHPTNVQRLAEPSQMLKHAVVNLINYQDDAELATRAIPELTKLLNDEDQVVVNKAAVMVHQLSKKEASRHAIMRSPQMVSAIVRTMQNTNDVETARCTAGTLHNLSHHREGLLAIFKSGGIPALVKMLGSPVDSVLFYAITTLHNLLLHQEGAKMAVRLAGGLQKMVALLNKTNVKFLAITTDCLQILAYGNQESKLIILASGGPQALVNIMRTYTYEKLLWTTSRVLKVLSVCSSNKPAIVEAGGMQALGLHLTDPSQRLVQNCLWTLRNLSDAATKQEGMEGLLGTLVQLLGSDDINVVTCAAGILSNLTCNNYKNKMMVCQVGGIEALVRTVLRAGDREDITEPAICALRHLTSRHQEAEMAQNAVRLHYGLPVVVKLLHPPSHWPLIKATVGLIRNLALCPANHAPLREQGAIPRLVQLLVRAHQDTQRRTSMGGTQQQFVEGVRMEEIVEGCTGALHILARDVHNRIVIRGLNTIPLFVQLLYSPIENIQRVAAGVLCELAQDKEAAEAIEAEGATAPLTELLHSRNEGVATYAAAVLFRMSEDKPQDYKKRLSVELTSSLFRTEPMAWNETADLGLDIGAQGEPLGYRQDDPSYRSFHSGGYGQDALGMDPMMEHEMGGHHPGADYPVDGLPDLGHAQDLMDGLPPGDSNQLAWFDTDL
Procedure: (§1) The plate was incubated protected from light for 60 minutes at 20° C. prior to read. Reads were performed on a CLARIOstar plate reader (BMG Labtech) in duplicate, and data were fitted to a 1:1 binding model with hill slope using an in-house script. All provided concentrations are final concentrations.

[2] = biological target: T1, full-length beta-Catenin (Uniprot ID …); assay: Alphascreen competition; biotin-TCF4(10-53) probe with full-length beta-catenin
Procedure: as §1, with “Equal volume of the titrated peptide was added to the” for “The”, “and” for “was”, “incubated for 15 minutes at 20° C. Then 4 uL of donor and 4 uL acceptor beads at 10 ug/mL were added to the plate, for a 16 uL reaction pool and” for “incubated”

[3] = biological target: T2, beta-catenin in DLD1 TCF/LEF luciferase reporter cells (UniProt P35222 1-781); assay: cell-based or functional assay
T2 sequence (looked up): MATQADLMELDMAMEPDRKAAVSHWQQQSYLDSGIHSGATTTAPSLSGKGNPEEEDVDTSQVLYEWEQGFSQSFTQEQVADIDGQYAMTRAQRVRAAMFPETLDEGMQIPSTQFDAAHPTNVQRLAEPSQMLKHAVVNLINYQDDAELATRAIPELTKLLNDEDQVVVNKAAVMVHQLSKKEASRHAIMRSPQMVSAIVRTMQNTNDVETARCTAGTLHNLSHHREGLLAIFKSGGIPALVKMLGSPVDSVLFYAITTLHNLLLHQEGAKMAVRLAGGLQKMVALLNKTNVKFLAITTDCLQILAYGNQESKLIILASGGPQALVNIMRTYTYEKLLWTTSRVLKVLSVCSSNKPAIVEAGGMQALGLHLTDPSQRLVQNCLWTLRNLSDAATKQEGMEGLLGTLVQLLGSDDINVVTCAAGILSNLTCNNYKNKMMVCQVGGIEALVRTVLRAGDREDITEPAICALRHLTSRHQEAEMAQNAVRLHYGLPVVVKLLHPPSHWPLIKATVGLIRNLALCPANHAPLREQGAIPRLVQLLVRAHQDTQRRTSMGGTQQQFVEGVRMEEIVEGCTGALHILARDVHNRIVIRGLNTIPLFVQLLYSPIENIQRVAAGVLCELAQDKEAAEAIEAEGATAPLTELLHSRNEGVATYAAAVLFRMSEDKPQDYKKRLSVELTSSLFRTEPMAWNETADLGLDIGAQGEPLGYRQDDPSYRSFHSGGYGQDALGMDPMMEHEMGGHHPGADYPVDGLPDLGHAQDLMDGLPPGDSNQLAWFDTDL

[4] = biological target: T3, full-length beta-Catenin (Uniprot ID P35222) (Homo sapiens (Human), UniProt P35222 2-781); assay: fluorescence polarization competition: full-length beta-catenin + 5FAM-TCF4(10-53) probe, peptide titrated
T3 construct: The AlphaScreen assay used a Histidine (Nickel Chelate) detection kit, so a His tag is likely, but no tag is described; also called B-Catenin; bCat
T3 sequence: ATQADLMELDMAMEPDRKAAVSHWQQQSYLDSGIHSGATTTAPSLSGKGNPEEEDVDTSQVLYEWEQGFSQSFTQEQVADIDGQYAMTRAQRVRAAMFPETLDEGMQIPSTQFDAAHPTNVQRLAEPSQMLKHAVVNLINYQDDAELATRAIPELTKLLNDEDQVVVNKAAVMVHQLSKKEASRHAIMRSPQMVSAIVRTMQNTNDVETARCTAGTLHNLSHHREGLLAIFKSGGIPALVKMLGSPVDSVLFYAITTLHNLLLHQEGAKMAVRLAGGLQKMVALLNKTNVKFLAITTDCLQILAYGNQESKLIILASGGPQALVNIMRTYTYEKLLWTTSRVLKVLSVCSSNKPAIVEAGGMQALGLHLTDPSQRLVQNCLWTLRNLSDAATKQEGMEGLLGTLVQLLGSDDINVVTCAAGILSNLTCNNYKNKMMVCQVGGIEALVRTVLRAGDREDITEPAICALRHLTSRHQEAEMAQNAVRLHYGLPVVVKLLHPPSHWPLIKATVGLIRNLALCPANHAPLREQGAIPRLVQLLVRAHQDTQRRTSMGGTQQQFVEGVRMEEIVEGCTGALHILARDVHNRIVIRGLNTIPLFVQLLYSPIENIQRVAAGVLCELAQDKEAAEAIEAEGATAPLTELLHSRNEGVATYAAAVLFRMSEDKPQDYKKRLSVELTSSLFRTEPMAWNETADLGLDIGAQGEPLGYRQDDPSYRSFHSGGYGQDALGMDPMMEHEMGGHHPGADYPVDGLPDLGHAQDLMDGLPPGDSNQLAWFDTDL
Procedure: as §1

[5] = biological target: T3, full-length beta-Catenin (Uniprot ID …); assay: AlphaScreen competition: full-length beta-catenin + biotin-TCF4(10-53) probe, peptide titrated
Procedure: as §1, with “Equal volume of the titrated peptide was added to the” for “The”, “and” for “was”, “incubated for 15 minutes at 20° C. Then 4 uL of donor and 4 uL acceptor beads at 10 ug/mL were added to the plate, for a 16 uL reaction pool and” for “incubated”

[6] = biological target: T4, beta-Catenin (full-length, Uniprot ID P35222) (Homo sapiens (Human), UniProt P35222 1-781); assay: fluorescence polarization competition: peptide titrated against 10 nM full-length beta-catenin + 10 nM 5FAM-labeled TCF4 residues 10-53 probe
T4 construct: also called bCat; B-Catenin
T4 sequence: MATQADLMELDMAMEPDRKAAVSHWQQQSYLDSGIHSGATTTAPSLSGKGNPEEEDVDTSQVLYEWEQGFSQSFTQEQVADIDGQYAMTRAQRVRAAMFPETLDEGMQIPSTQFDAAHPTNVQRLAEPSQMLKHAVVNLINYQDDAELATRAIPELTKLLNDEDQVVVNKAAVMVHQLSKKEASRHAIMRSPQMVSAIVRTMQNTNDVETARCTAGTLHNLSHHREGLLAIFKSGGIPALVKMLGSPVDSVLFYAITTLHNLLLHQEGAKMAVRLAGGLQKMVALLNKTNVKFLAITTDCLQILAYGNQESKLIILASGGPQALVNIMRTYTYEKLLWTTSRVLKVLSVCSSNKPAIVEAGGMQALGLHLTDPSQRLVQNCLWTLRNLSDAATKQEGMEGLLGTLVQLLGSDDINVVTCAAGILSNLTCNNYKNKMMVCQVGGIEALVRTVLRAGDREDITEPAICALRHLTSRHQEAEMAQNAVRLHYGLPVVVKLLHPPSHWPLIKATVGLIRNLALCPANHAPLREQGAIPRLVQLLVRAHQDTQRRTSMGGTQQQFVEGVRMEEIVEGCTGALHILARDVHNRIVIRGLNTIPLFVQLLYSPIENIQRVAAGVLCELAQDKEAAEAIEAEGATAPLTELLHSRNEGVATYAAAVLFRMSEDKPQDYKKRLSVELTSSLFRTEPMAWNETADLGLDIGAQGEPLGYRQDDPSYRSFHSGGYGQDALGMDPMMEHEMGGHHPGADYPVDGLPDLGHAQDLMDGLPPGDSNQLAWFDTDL
Procedure: as §1

B1: I-127 (peptide)
peptide: Ac-[αAllylPro]DA[B5(5)]DQAAFV[S8]FWQ-NH2
modifications: staple 1-4, 4-11
notes: Stitched (two-staple) peptide composition
EC50 [1]: 4840 nM
EC50 [2]: 552 nM

Binder: Ac-[αAllylPro]D[tBuAla][B5(5)]D[Phe(3-COOH)]AAFL[PyrS2][Phe(2-CF3)][Bta]QFA-NH2 (staple 1-4, 4-11) [I-2400]
DLD1 4% Abs IC50 [3]: 800 nM

Binder: Ac-[αAllylPro]DA[B5(4)]DDAAFV[S8][Phe(4-F)]WQ-NH2 (staple 1-4, 4-11, Stapled peptide) [I-261: Ac-PL3-Asp-Ala-B5-Asp-Asp-Ala-Ala-Phe-Val-S8-4FF-Trp-Gln-NH2]
IC50 [6]: 5000 nM

Further lines, results first:

EC50 [1]: 2160 nM
EC50 [2]: 400 nM
B2: I-131 (peptide)
peptide: Ac-[αAllylPro]DA[B5(4)]DEAAFV[SeN″]FWQ-NH2
modifications: staple 1-4, 4-11
notes: Stitched (two-staple) peptide composition; same description as I-130, separate later-eluting HPLC peak (staple isomer)

EC50 [4]: 1960 nM
EC50 [5]: 90 nM
B3: I-218 (peptide)
peptide: Ac-[αAllylPro]DA[B5(4)]DEAAXV[S8]FWQ-NH2
modifications: staple 1-4, 4-11; not fully specified (residue 9); printed as Ac-PL3-Asp-Ala-B5-Asp-Glu-Ala-Ala-MeTyr-Val-S8-Phe-Trp-Gln-NH2
notes: Stapled peptide composition; also called Ac-PL3-Asp-Ala-B5-Asp-Glu-Ala-Ala-MeTyr-Val-S8-Phe-Trp-Gln-NH2

EC50 [4]: 1960 nM
EC50 [5]: 90 nM
B4: I-217 (peptide)
peptide: Ac-[αAllylPro]DA[B5(4)]DEAAXV[S8]FWQ-NH2
modifications: staple 1-4, 4-11; not fully specified (residue 9); printed as Ac-PL3-Asp-Ala-B5-Asp-Glu-Ala-Ala-MeTyr-Val-S8-Phe-Trp-Gln-NH2
notes: as for B3

DLD1 4% Abs IC50 [3]: 1300 nM
Binder: Ac-[αAllylPro]D[tBuAla][B5(5)]D[Phe(3-COOH)]AAFL[PyrS2″][2F3MeF][Bta]QL[dQ]-NH2 (staple 1-4, 4-11) [I-2398]
